B1: Speckle-type POZ protein (Homo sapiens), O43791 (parent)
chain: MSRVPSPPPPAEMSSGPVAESWCYTQIKVVKFSYMWTINNFSFCREEMGEVIKSSTFSSGANDKLKWCLRVNPKGLDEESKDYLSLYLLLVSCPKSEVRAKFKFSILNAKGEETKAMESQRAYRFVQGKDWGFKKFIRRDFLLDEANGLLPDDKLTLFCEVSVVQDSVNISGQNTMNMVKVPECRLADELGGLWENSRFTDCCLCVAGQEFQAHKAILAARSPVFSAMFEHEMEESKKNRVEINDVEPEVFKEMMCFIYTGKAPNLDKMADDLLAAADKYALERLKVMCEDALCSNLSVENAAEILILADLHSADQLKTQAVDFINYHASDVLETSGWKSMVVSHPHLVAEAYRSLASAQCPFLGPPRKRLKQS
partner: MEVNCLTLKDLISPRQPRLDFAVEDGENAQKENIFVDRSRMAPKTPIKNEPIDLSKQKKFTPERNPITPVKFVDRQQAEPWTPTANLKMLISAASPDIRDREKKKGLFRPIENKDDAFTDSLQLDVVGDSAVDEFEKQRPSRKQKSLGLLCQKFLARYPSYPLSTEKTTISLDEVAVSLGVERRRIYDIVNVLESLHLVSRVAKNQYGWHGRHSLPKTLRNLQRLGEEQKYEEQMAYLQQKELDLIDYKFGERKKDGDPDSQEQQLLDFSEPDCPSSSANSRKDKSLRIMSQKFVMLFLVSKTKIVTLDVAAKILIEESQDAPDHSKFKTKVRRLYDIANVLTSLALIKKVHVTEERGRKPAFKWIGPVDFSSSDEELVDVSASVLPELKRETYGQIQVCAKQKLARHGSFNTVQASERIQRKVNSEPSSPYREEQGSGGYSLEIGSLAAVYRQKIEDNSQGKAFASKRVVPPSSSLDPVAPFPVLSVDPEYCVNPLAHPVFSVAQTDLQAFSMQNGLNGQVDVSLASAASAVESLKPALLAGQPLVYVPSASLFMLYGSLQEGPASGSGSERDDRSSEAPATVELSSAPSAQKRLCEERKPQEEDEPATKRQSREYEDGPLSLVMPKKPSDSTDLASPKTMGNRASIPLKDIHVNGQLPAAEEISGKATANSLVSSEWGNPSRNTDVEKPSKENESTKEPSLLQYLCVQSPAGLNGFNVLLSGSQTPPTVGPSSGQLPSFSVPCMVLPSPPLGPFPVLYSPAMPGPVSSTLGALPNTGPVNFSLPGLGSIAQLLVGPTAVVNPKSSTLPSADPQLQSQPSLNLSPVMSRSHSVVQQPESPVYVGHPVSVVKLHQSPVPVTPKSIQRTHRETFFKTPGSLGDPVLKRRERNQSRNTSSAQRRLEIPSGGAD
B2: Speckle-type POZ protein (Homo sapiens), O43791 (parent)
chain: B1 chain
partner: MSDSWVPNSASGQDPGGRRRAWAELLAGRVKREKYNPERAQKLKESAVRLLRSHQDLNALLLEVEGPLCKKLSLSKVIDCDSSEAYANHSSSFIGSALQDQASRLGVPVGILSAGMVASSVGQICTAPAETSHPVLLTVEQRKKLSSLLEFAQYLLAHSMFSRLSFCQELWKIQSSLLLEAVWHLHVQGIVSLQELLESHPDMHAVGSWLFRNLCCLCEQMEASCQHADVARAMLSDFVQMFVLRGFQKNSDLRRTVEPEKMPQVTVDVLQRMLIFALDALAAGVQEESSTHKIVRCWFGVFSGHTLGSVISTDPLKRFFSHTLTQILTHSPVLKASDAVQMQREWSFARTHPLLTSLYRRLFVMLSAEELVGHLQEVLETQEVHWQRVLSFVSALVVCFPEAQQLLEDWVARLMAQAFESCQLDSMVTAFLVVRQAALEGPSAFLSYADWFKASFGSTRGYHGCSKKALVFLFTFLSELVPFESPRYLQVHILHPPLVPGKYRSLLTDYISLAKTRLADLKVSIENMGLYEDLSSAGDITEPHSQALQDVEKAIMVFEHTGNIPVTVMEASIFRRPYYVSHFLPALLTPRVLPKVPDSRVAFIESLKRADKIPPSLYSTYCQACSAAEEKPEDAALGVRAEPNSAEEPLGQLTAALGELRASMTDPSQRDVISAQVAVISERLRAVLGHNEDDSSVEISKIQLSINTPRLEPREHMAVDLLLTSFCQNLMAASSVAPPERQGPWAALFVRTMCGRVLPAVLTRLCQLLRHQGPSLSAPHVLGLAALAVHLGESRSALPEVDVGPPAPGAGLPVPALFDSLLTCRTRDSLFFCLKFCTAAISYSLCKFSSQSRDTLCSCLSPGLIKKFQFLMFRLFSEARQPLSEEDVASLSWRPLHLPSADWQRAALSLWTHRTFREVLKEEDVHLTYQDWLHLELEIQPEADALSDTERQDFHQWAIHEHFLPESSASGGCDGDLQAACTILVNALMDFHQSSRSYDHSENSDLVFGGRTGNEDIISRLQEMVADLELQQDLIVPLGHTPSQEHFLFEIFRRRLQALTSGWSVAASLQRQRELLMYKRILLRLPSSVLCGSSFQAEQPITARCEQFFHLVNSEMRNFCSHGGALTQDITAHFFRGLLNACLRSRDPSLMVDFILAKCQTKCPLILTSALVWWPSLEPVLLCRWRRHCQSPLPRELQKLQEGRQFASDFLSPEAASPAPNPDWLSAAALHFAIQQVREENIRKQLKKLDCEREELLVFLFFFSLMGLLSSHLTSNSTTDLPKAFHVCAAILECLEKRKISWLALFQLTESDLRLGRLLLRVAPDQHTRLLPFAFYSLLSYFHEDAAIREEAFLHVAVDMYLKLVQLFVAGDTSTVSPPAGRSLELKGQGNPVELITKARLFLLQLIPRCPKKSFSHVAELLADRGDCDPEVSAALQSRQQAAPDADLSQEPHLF
B3: Speckle-type POZ protein (Homo sapiens), O43791 (parent)
chain: B1 chain
partner: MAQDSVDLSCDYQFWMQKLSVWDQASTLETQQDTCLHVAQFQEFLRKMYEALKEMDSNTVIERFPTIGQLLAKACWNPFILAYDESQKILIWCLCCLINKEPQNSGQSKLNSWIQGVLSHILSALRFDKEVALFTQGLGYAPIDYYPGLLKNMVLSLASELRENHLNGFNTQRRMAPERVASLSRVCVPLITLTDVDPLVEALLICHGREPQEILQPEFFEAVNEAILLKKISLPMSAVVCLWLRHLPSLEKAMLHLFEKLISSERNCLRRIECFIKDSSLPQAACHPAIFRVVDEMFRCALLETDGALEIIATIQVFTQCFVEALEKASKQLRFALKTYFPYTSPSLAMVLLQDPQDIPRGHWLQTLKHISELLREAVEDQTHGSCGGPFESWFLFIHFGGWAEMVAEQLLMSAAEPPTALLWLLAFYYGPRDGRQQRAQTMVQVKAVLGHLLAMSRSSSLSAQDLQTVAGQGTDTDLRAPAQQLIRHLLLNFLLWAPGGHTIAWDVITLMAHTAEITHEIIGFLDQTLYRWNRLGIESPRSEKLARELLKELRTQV
B4: Speckle-type POZ protein (Homo sapiens), O43791 (parent)
chain: B1 chain
partner: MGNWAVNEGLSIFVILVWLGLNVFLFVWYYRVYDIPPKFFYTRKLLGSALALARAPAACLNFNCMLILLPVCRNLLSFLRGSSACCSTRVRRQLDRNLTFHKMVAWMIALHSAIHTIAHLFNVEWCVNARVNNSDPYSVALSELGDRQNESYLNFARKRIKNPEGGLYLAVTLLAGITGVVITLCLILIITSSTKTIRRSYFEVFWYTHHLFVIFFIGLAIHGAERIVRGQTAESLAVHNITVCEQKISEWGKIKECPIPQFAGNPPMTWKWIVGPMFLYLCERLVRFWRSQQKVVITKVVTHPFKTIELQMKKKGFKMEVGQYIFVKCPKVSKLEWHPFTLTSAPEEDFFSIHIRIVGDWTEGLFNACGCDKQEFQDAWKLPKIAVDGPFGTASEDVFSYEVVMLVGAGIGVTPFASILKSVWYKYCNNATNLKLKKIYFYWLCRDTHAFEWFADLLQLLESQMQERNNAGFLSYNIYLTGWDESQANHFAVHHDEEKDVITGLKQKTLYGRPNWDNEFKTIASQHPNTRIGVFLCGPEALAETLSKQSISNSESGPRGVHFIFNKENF
B5: Speckle-type POZ protein (Homo sapiens), O43791 (parent)
chain: B1 chain
partner: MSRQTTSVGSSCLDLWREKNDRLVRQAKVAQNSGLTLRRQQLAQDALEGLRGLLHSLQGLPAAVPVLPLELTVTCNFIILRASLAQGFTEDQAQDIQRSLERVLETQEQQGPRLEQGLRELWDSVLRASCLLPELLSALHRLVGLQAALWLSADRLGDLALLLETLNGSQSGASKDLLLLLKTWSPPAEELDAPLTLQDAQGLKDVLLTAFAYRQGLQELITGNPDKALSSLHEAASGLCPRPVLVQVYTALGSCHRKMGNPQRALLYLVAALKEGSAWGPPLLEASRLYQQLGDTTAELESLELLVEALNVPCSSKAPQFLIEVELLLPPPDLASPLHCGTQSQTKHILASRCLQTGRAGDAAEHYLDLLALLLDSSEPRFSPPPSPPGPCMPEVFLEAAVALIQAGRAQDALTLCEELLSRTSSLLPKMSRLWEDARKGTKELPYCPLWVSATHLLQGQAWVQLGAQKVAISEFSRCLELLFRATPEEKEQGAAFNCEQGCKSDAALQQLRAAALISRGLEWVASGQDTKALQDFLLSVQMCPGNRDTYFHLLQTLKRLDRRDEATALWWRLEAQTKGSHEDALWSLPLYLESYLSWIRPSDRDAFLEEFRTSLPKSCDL
B6: Speckle-type POZ protein (Homo sapiens), O43791 (parent)
chain: B1 chain
partner: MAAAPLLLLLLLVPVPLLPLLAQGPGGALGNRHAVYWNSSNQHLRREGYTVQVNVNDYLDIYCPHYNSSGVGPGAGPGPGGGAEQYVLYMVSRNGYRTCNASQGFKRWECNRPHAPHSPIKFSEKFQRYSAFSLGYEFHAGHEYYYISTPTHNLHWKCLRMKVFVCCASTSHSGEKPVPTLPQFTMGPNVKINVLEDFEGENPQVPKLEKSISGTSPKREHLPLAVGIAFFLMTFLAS
B7: Speckle-type POZ protein (Homo sapiens), O43791 (parent)
chain: B1 chain
partner: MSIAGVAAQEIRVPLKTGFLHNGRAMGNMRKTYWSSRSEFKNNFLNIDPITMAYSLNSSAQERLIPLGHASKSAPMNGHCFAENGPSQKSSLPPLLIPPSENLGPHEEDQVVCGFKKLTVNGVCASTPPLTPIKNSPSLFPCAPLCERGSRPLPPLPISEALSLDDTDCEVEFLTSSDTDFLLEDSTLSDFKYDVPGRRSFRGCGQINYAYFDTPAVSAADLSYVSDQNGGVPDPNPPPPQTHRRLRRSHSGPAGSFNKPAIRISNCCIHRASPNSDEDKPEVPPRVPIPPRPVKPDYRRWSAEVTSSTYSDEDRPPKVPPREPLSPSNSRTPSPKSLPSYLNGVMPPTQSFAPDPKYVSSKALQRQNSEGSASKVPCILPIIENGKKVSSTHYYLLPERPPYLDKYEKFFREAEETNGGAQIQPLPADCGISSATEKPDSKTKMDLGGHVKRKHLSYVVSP

Variants of: B1
Details: with e2f7_human E2F7, Q96AV8
In the case of F102C, the “effect of a mutation on the interaction” value is reported as “with no effect”.

Variants of: B2
Details: with fanca_human FANCA
Y87C was tested, and the “effect of a mutation on the interaction” value was “with no effect”.

Variants of: B2
Details: with fanca_human FANCA
Remark: another data set of the same source
In the case of F102C, the “effect of a mutation on the interaction” value is reported as “with no effect”.

Variants of: B2
Details: with fanca_human FANCA
Remark: another data set of the same source
For F133L, the “effect of a mutation on the interaction” value was “with no effect”.

Variants of: B3
Details: with fancc_human FANCC
With Y87C the “effect of a mutation on the interaction” value was “with no effect”.

Variants of: B3
Details: with fancc_human FANCC
Remark: another data set of the same source
For F133L, the “effect of a mutation on the interaction” value was “with no effect”.

Variants of: B3
Details: with fancc_human FANCC
Remark: another data set of the same source
In the case of F133V, the “effect of a mutation on the interaction” value is reported as “with no effect”.

Variants of: B3
Details: with fancc_human FANCC
Remark: another data set of the same source
F102C was tested, and the “effect of a mutation on the interaction” value was “with no effect”.

Variants of: B4
Details: with cy24b_human CYBB
In the case of Y87C, the “effect of a mutation on the interaction” value is reported as “with no effect”.

Variants of: B4
Details: with cy24b_human CYBB
Remark: another data set of the same source
F102C was tested, and the “effect of a mutation on the interaction” value was “with no effect”.

Variants of: B4
Details: with cy24b_human CYBB
Remark: another data set of the same source
In the case of F133L, the “effect of a mutation on the interaction” value is reported as “with no effect”.

Variants of: B4
Details: with cy24b_human CYBB
Remark: another data set of the same source
With F133V the “effect of a mutation on the interaction” value was “with no effect”.

Variants of: B5
Details: with fancg_human FANCG
For F133L, the “effect of a mutation on the interaction” value was “with no effect”.

Variants of: B5
Details: with fancg_human FANCG
Remark: another data set of the same source
With F133V the “effect of a mutation on the interaction” value was “with no effect”.

Variants of: B5
Details: with fancg_human FANCG
Remark: another data set of the same source
For F102C, the “effect of a mutation on the interaction” value was “with no effect”.

Variants of: B5
Details: with fancg_human FANCG
Remark: another data set of the same source
For Y87C, the “effect of a mutation on the interaction” value was “with no effect”.

Variants of: B6
Details: with efna3_human EFNA3, P52797
In the case of Y87C, the “effect of a mutation on the interaction” value is reported as “with no effect”.

Variants of: B6
Details: with efna3_human EFNA3, P52797
Remark: another data set of the same source
With F102C the “effect of a mutation on the interaction” value was “with no effect”.

Variants of: B6
Details: with efna3_human EFNA3, P52797
Remark: another data set of the same source
F133L was tested, and the “effect of a mutation on the interaction” value was “with no effect”.

Variants of: B6
Details: with efna3_human EFNA3, P52797
Remark: another data set of the same source
In the case of F133V, the “effect of a mutation on the interaction” value is reported as “with no effect”.

Variants of: B7
Details: with errfi_human ERRFI1, Q9UJM3
In the case of F102C, the “effect of a mutation on the interaction” value is reported as “with no effect”.

Variants of: B7
Details: with errfi_human ERRFI1, Q9UJM3
Remark: another data set of the same source
F133L was tested, and the “effect of a mutation on the interaction” value was “with no effect”.

Variants of: B7
Details: with errfi_human ERRFI1, Q9UJM3
Remark: another data set of the same source
For F133V, the “effect of a mutation on the interaction” value was “with no effect”.

Variants of: B7
Details: with errfi_human ERRFI1, Q9UJM3
Remark: another data set of the same source
Y87C was tested, and the “effect of a mutation on the interaction” value was “with no effect”.

From IntAct's records for PubMed 35512704
